Source: article PMC2738423

What was measured:
Assay in all cases: SPR
[1] = target: AglyFc-mut-MBP (aglycosylated, N297A; mouse IgG1 hinge-Fc TT-HN mutant linked via Gly-Ser-Gly-Gly to MBP1–9[4Y]) (mouse | not stated)
[2] = target: AglyFc-WT-MBP (aglycosylated, N297A; mouse IgG1 hinge-Fc linked via Gly-Ser-Gly-Gly to MBP1–9[4Y]) (mouse | not stated)
[3] = target: wild type (WT) mouse hinge-Fc region (mouse IgG1 derived), no MBP epitope attached (mouse)
[4] = target: Fc-WT-MBP (glycosylated; wild type mouse IgG1 hinge-Fc linked via Gly-Ser-Gly-Gly to MBP1–9[4Y]) (mouse | not stated)

KD of the higher affinity interaction site [1]: 19.8 nM
KD of the higher affinity interaction site [2]: 170 nM
KD of the higher affinity interaction site [3]: 188 nM
KD of the higher affinity interaction site [4]: 212 nM
Substance: Recombinant mouse FcRn (from UniProt Q61559 22-365; P01887 21-119) (receptor)
